In patent US20190106487A1 (Sanofi, published 2019):

T1: mIL1RAcP-Fc (murine, UniProt Q61730 21-359)
T1 construct: also called P013_04; P013-04
T1 sequence (looked up): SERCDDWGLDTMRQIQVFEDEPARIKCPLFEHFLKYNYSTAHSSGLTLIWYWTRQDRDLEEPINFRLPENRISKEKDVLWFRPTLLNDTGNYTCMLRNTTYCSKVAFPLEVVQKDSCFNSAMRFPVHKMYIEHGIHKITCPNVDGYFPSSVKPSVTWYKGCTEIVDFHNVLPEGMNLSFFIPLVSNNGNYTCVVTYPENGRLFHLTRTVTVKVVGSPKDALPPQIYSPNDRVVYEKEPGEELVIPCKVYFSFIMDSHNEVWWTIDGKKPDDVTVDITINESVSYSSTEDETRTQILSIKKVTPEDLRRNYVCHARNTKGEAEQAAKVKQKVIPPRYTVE

T2: rhIL-1RAcP/Fc Chimera (human, UniProt Q9NPH3 21-359)
T2 construct: also called P013_03; P013-03
T2 sequence (looked up): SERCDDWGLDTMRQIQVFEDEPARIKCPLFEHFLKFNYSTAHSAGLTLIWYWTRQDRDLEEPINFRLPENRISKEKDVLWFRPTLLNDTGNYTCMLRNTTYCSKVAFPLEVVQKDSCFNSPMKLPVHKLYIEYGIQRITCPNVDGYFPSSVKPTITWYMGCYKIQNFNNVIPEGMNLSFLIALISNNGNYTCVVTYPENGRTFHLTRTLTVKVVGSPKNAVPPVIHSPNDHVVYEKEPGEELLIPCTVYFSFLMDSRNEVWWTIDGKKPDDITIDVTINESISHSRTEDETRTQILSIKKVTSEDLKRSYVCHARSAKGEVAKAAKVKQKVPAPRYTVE

T3: human IL-1RAcP on 293T/17-FR cells (human, UniProt Q9NPH3 21-570)
T3 sequence (looked up): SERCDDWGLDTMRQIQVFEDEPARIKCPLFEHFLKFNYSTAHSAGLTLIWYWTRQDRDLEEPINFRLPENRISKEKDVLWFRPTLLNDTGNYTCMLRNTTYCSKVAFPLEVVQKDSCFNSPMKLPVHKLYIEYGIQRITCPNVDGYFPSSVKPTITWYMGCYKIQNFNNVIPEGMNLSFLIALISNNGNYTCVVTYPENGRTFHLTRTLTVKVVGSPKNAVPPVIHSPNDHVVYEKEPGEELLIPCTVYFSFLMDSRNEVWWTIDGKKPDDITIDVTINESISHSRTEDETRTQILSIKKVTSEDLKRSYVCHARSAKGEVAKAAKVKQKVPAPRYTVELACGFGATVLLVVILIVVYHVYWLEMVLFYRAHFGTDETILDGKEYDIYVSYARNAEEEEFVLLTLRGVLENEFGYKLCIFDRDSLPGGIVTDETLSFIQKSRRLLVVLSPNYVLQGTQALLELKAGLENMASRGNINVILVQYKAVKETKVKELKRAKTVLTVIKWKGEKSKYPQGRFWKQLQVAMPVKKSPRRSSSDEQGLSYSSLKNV

B1: P013.S.01.B.F06 (antibody, V domains shown)
VH: QSVEESGGRLVTPGTPLTLTCTVSGIDLSSDAVGWVRQAPGKGLEYIGIIVSSGETFYASWARGRCTISKTSSTTVDLRITRLTTEDTATYFCARGGPGYSFDTEYAFDPWGPGTLVTVSS
VL: AFEMTQTPASVEVAVGGTVTINCQASQSIGSWLSWYQQKVGQRPKLLISRASTLASGVPSRFKGSGSGTEYTLTISGVQSDDAATFYCQQGATTYDVDNVFGGGTEVVVR
notes: rabbit monoclonal antibody; also called P013.A.00045.E09
B2: P013.S.02.B.G02 (antibody, V domains shown)
VH: QSLEESGGDLVKPGASLTLTCTASGFSLSSGGMTWVRQAPGKGLEWIGYINTGSGRTYYASWAKGRFIISKTSSTTVSLQMTSLTAADTATYFCAGGLPSDLWGPGTLVTVSS
VL: DIVMTQTPSSVEAAVGGTVTIKCQASQSINSRLAWYQQKPGQPPKLLIYDASTLASGVSSRFSGSGTEFTLTISDLESADGATYYCLSHYLTSSSSYGNAFGGGTEVVVK
notes: rabbit monoclonal antibody; also called P013.A.00014.C07

Tests used:
mIL1RAcP-Fc [1] = target: T1, mIL1RAcP-Fc; assay: ELISA, primary supernatant, coated mu-IL-1RAcP-Fc
mIL1RAcP-Fc [2] = target: T1, mIL1RAcP-Fc; assay: ELISA, recombinant purified mAb
rhIL-1RAcP/Fc Chimera [3] = target: T2, rhIL-1RAcP/Fc Chimera; assay: ELISA, recombinant purified mAb
rhIL-1RAcP/Fc Chimera [4] = target: T2, rhIL-1RAcP/Fc Chimera; assay: ELISA, primary supernatant, coated hu-IL-1RAcP-Fc
Outline: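 Plates coated with 0.5 μg/mL Fc-tagged human IL-1RAcP; rabbit B-cell supernatant antibodies detected by peroxidase anti-rabbit IgG Fab2 and TMB, absorbance 450/620 nm. Parallel IL12Rβ1-Fc coating served as counterscreen to exclude tag binders.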

[5] = target: T3, human IL-1RAcP on 293T/17-FR cells; assay: cell-based or functional assay

Binder | mu-IL1RaP ELISA (OD) (mIL1RAcP-Fc [1]) | EC50 (mIL1RAcP-Fc [2]) | EC50 (rhIL-1RAcP/Fc Chimera [3]) | hu-IL1RaP ELISA (OD) (rhIL-1RAcP/Fc Chimera [4]) | functional reporter gene assay (% inhibition), 0.04 µg/mL mAb [5] | functional reporter gene assay (% inhibition), 0.2 µg/mL mAb [5] | functional reporter gene assay (% inhibition), 1 µg/mL mAb [5] | functional reporter gene assay (% inhibition), 5 µg/mL mAb [5] | primary supernatant functional assay (% inh.), NF-kB luciferase reporter [5]
B1 | 3.4 OD | 0.028 mg/L | 0.039 mg/L | 2.8 OD | 41% | 52% | 68% | 70% | 75%
B2 | 3.4 OD | 0.082 mg/L | 0.493 mg/L | 3.6 OD | -2% | 0% | 5% | 0% | -39%
